Measured values reported in patent US7708999B2, “Remedies for arthritis” (Kyowa Hakko Kirin Co., Ltd., priority 2001, dated 2010).

Columns and labels:
FGF-8 [1] = target: T1, FGF-8 (Homo sapiens, UniProt P55075); assay: Inhibition by antibody of FGF-8-promoted growth of rabbit synovial cells; type: cell-based; details: FGF-8 100 ng/mL, 0.1, 0.3, 1, 3 or 10 μg/ml tested
T1 construct: purchased R & D
T1 sequence (P55075 23-215 isoform P55075-3 limits assumed): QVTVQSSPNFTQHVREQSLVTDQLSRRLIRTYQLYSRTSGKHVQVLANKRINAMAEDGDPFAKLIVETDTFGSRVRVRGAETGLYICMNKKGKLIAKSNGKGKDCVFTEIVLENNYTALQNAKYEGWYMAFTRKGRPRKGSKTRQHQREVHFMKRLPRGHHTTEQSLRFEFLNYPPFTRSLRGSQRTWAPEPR
Protocol: Rabbit synovial cells were collected by the method of Hamilton et al. (Hamilton J. A. and Slywka J., J. Immunol. 126, 851-855, 1981). The isolated synovial cells were suspended in RPMI 1640 medium comprising 10 vol % FBS (FBS-comprising RPMI 1640 medium is hereinafter referred to as FBS/RPMI 1640), and 10,000 cells was inoculated at each well of a 96-well culture plate. After 24 hours of the culturing, the culture medium of each well was removed, and 200 μL of 0.2 vol % FBS/RPMI 1640 (non-stimulated group) or 0.2 vol % FBS/RPMI 1640 comprising FGF-8 (1, 10 or 100 ng/mL) was added. When the activity of the anti-FGF-8 neutralizing antibody was examined, 200 μL of 0.2 vol % FBS/RPMI 1640 comprising FGF-8 (100 ng/mL) (0 group) or 0.2 vol % FBS/RPMI 1640 comprising FGF-8 (100 ng/mL) and anti-FGF-8 neutralizing antibody KM1334 (0.1, 0.3, 1, 3 or 10 μg/ml) was added to each well. After 48 hours of the culturing, 9.25 kBq per well of [^3H]thymidine was added. The culturing was further performed for 24 hours, and the radioactivity of [^3H]thymidine incorporated in the cells was measured using a liquid scintillation counter (1205 Beta Plate, manufactured by Perkin Elmer Life Science Japan). Six experiments were performed for each condition, and the mean values and the standard error were calculated.

FGF-8 [2] = target: T1, FGF-8; assay: Inhibition by antibody of FGF-8-promoted degradation of extracellular matrix of rabbit chondrocytes; type: cell-based; details: FGF-8 100 ng/mL, 48 hours, 1, 3 or 10 μg/mL tested
Protocol: Rabbit articular chondrocytes were isolated from both knees and shoulders of 3-week-old New Zealand white female rabbits and cultured according to the method of Tamura et al. (Tamura T. et al., Eur. J. Pharmacol., 419, 269-274, 2001). That is, the joints of both knees and the joints of both shoulders were isolated to collect the epiphyseal cartilages. […] The culture solution was removed, and the amount of glycosaminoglycan in extracellular matrix remaining on the plate was measured by the dimethymethylene blue (DMMB) method (Chandrasekhar S. et al., Anal. Biochem. 161 103-108, 1987). […] To 75 μL of this digested solution were added 25 μL of a guanidine hydrochloride buffer (2.88 mol/L guanidine hydrochloride, 50 mmol/L sodium acetate, pH 6.8) and 200 μL of a DMMB solution, and the absorbance was measured at 530/590 nm. The concentration of glycosaminoglycan of each sample was calculated from the absorbance of chondroitin sulfate (derived from whale cartilages, manufactured by Seikagaku Kogyo) used as a standard. Three experiments were performed for each condition and the mean values and the standard error were calculated.

antibody concentration from which the FGF-8-dependent incorporation of [3H]thymidine was significantly inhibited (FGF-8 [1]): ≥ 0.3 µg/mL
antibody concentration at which the promotion of degradation of extracellular matrix of the cartilage with FGF-8 was significantly inhibited (FGF-8 [2]): ≥ 3 µg/mL
B1: KM1334: anti-FGF-8 neutralizing monoclonal antibody produced by hybridoma KM1334 (FERM BP-5451), mouse IgG1 subclass (antibody, V domains shown)
VH: QVQLQQSGAEVARPGASVKLSCKASGYTFTDYYLNWVKQRSGQGLEWIGEIDPGSDSIYYNENLEGRATLTADKSSSTAYMQLNSLTSEDSAVYFCARYGYSRYDVRFVYWGQGTLVTVST
VL: DVLMTQTPLSLPVSLGDQASISCRSSQSLVHSNGRTYLEWYLQKPGQSPKVLIYKVSNRISGVPDRFSGSGSGTDFTLKISRVEAEDLGVYFCFQGSHVPYTFGGGTKLEIK
